From article PMC5300155, “Biochemical and biophysical investigations of the interaction between human glucokinase and pro-apoptotic BAD” (PLoS ONE, 2017)
“Also recorded” adds a separate entry of the source.

T1: GCK (Homo sapiens, UniProt P35557)
T1 construct: hexahistidine (N); made in house; host or cells: glucokinase auxotroph BM5340(DE3)
T1 sequence (P35557 1-465): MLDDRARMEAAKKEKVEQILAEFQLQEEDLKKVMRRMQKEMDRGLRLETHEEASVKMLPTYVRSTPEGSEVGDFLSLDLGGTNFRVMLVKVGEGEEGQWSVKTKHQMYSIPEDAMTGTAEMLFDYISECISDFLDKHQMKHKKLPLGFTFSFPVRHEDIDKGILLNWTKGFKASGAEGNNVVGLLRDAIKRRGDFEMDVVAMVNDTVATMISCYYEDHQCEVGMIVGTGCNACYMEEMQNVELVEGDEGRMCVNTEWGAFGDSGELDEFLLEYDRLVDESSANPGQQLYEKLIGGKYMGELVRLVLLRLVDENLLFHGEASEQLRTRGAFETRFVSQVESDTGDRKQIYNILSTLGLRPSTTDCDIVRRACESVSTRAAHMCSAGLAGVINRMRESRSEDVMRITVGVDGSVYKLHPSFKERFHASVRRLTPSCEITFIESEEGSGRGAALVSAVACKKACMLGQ


Experiments:
GCK = target: T1, GCK; assay: GCK activity, microplate G6PDH-linked assay as described by Szlyk et al. (37°C); type: biochemical; details: GCK 7.5 nM; for Effect on GCK Vmax: either assay (routine and Szlyk microplate), peptide 5 μM, 37°C in microplate assay
Description: Steady state kinetics were also performed as described by Szlyk, et al.[13]. Briefly, G6PDH-linked assays were performed in clear 96-well plates at 37°C with a SpectraMax M5 microplate reader (Molecular Devices) recording absorbance at 340 nm every 30 s. Reaction mixtures contained GCK (7.5 nM), HEPES (100 mM, pH 7.4), KCl (150 mM), MgCl2(6 mM), DTT (1 mM), NAD (1 mM), BSA (0.05%), G6PDH (2.5 U), glucose (0.5–100 mM), and ATP (5 mM) in the presence or absence of BAD-GST S118D variant (5 μM) or phosphorylated BAD BH3 peptide (5 μM) in a final volume of 100 μL.
GCK (7.5 nM) was assayed in the presence of A. S118D BADGST (5 μM) or B. pBH3 (5 μM) in a 96 well plate using a microplate reader. Buffer conditions were as follows: Ref [13]: 100 mM Hepes, pH 7.4; 150 mM KCl; 1 mM NAD+; 0.05% BSA; 6 mM MgCl2; 1 mM DTT; 2.5 U G6PDH; 5 mM ATP. Optimal GCK conditions: 100 mM Hepes, pH 7.4; 150 mM KCl; 1 mM NADP+; 6 mM MgCl2; 10 mM DTT; 1.5 U G6PDH; 5 mM ATP. (EPS) Click here for additional data file.

glucokinase (GCK) = assay: Chemical cross-linking (dimethyl pimelimidate) with GCK; type: binding, human; details: DMP, 50-fold molar excess, room temperature 1 h; 1:1 mixture, 40 μM protein; SDS-PAGE
Description: Protein samples were cross-linked with dimethyl pimelimidate (DMP). Aqueous stocks of cross-linkers were added to protein samples in a 50-fold molar excess and incubated at room temperature 1 h. Mixtures contained 20 μM protein (GCK or BAD) or 40 μM protein (1:1 mixture of glucokinase and BAD) in BAD buffer (0.1 M Tris, 0.1 M KCl, 0.5 M arginine, 2.5 mM CHAPS, 5 mM TCEP, 10% glycerol, pH 8.5). Reactions were immediately separated on SDS-PAGE and visualized with Coomassie blue staining.

[1] = Proteolysis and aggregation of recombinant BAD produced under native conditions; type: physicochemical
Description: Under native conditions, cell pellet was resuspended and lysed in HEPES buffer (50 mM, pH7.6) containing NaCl (50 mM), imidazole (25 mM), glycerol (5%), and DTT (5 mM). PMSF, benzamidine, a protease inhibitor cocktail (Pierce), and BSA (0.1 mg/mL) were added to the lysis buffer in attempts to reduce protein degradation. Clarified lysate was applied to a HisTrap affinity column and following purification, purified BAD-GST was applied to a Superdex 200 10/30 HR size-exclusion column, at a flow rate of 0.02 mL/min.
Protein samples were excised from SDS-PAGE gels and exposed to trypsin digestion prior to analysis by mass spectroscopy. MALDI-TOF was performed on a Shimadzu Axima CFP MALDI-TOF in positive ion, reflectron mode. Linear trap quadripole (LTQ) Orbitrap MS was performed on a Thermo LTQ Orbitrap Velos HPLC-nESI-LIT-Orbitrap.
To facilitate biochemical characterization of the BAD:GCK complex, we sought a method to produce functional, recombinant human BAD. Several groups have used microbial hosts to produce BAD, however, functional characterization of the resulting protein was limited.

Bcl-xL [2] = target: T2, Bcl-xL (Homo sapiens, UniProt Q07817, DEL45-84); assay: Size-exclusion chromatography of 1:1 mixture with Bcl-xL; type: binding; details: 1:1 mixture of purified Bcl-xL and BAD-GST; BAD buffer pH 8.5, 4°C
T2 construct: made in house
T2 sequence (Q07817 with tags, fused parts or gaps DEL45-84): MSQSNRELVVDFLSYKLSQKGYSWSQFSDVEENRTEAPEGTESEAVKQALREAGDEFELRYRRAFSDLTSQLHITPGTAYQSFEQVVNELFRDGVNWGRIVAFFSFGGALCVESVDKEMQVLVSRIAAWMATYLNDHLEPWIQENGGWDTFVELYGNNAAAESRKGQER
Description: Size-exclusion chromatography was performed on a HiPrep 16/60 Sephacryl S-200 HR column (GE Healthcare) connected to a Bio-Rad DuoFlow FPLC. The column was calibrated with thyroglobulin (669 kDa), γ-globulin (158 kDa), ovalbumin (43 kDa), myoglobin (17 kDa), and vitamin B12 (1.35 kDa). All proteins were analyzed in BAD buffer (0.1 M Tris, 0.1 M KCl, 0.5 M arginine, 2.5 mM CHAPS, 5 mM TCEP, 10% glycerol, pH 8.5) at a flow rate of 0.02 mL/min at 4°C. Protein samples were concentrated to 800 μL and filtered through 0.2 μm filters before injection onto the size-exclusion column. For complex formation, equimolar mixtures of proteins were added to BAD buffer in a final volume of 800 μL and incubated on ice 30 min prior to injection onto the column.

Bcl-xL [3] = target: T2, Bcl-xL; assay: Analytical ultracentrifugation sedimentation velocity of 1:1 mixture BAD-GST and Bcl-xL; type: binding; details: 1:1 mixture of BAD-GST and Bcl-xL, 20°C, 50,000 x g, BAD buffer pH 8.5
Description: Sedimentation velocity experiments were conducted with an Optima XLI Ultracentrifuge (Beckman Coulter) using a four-hole rotor with three 420 μL samples in standard double-sector Epon centerpieces equipped with sapphire windows. Absorbance and interference data were collected simultaneously. Size-exclusion purified proteins were concentrated to OD280 nm = 0.3–1.0 prior to centrifugation. For complex formation, proteins were mixed in a 1:1 molar ratio in BAD buffer (0.1 M Tris, 0.1 M KCl, 0.5 M arginine, 2.5 mM CHAPS, 5 mM TCEP, 10% glycerol, pH 8.5) and incubated on ice 30 min prior to the start of the experiment. Experiments were carried out at 20°C and 50,000 x g. Data were analyzed with Ultrascan III software using a minimum of 70 scans per sample for analysis. Van Holde-Weischet analysis was performed to obtain S20,W values.

Molecule	Effect on GCK kinetics under Szlyk et al. buffer conditions (GCK; S118D BADGST 5 μM, or pBH3 5 μM, 96 well plate, S2 Fig)	Effect on GCK Vmax (GCK; listed as phosphorylated BAD BH3 peptide)	Effect on GCK Vmax (GCK; listed as phosphorylated BH3 peptide)	Complex with GCK by chemical cross-linking (glucokinase (GCK))	Proteolysis during recombinant production ([1]; MALDI-TOF, protease inhibitors failed to alleviate degradation)	Aggregation when produced under native conditions ([1]; native conditions, E. coli)	Complex formation with Bcl-xL by size-exclusion chromatography (Bcl-xL [2])	Sedimentation coefficient (Bcl-xL [3])
NLWAAQRYGRELRRM(p)SDKFVD [pBH3, 21-residue phosphorylated peptide containing the BH3 domain of BAD]	did not increase BAD’s effects on GCK kinetics	no statistically significant difference in the GCK Vmax value	lack of an increase in the GCK Vmax value	–	–	–	–	–
BAD-GST: recombinant human BAD with N-terminal hexahistidine tag and C-terminal GST fusion, TEV consensus sequence between (protein, left off: His6, N-terminal, state not stated | GST, C-terminal, kept) MFQIPEFEPSEQEDSSSAERGLGPSPAGDGPSGSGKHHRQAPGLLWDASHQQEQPTSSSHHGGAGAVEIRSRHSSYPAGTEDDEGMGEEPSPFRGRSRSAPPNLWAAQRYGRELRRMSDEFVDSFKKGLPRPKSAGTATQMRQSSSWTRVFQSWWDRNLGRGSSAPSQ	–	–	–	does not support the formation of a BAD-GST:GCK complex	extensive C-terminal proteolysis	leads to aggregation of the protein	three peaks corresponding to monomeric Bcl-xL, the BAD-GST dimer, and the BAD-GST:Bcl-xL complex; also recorded: confirms formation of a higher molecular weight complex between BAD-GST and Bcl-xL	2.1
